# Measured values published in patent US20040146896A1, “Methods and compositions for diagnosing and treating companion animal cancer” (priority 2002, published 2004).
# Key:
# [1] = test system: U937 human tumor cells; experiment: Cell Death Detection ELISA apoptosis assay, U937; format: cell-based; conditions: mammalian expressed TRAIL supernatants; commercial human TRAIL and Fas ligand 100 ng/ml (FIGS. 19B, 20B, 21B)
# Description: 4. Cell Death Detection ELISA Plus assay for apoptosis. The assay is based on a quantitative sandwich-enzyme-immunoassay-principle using mouse monoclonal antibodies directed against DNA and histones, respectively. This allows the specific determination of mono- and oligonucleosomes in the cytoplasmatic fraction of cell lysates. Roche kit, Cat. # 1 774 425, was used for this assay. 0.1 ml of U937 or any other types of cells (2×104 ) and 0.1 ml of tissue culture supernatant or other solutions containing apoptosis inducing agents (e.g. TRAIL) were used for this assay in 48-well plate. After 24 or 48 hrs of incubation at 3 7° C., the cells were spun at 2,000 rpm for 10 minutes. Cell pellet was then resuspended in 200 ul lysis buffer and incubated for 30 minutes at room temperature. The cell lysate was then centrifuged at 2,000 rpm for 10 minutes and diluted at 1:10 with incubation buffer. 20 ul of diluted lysate was added to coated plate (MTP from kit) and 80 ul of the immunoreagent was added to each well. MTP was then covered with adhesive cover foil and incubated under gentle shaking for 2 hours at room temperature. The solution was then removed thoroughly by tapping and subsequently rinsed 3 times with 250 ul incubation buffer. 100 ul ABTS solution was added and incubated on a plate shaker at 250 rpm for 15 minutes. Readings at 405 nm and 490 nm (background) were done on ELISA reader. […]
# [2] = test system: Normal dog hepatocytes; experiment: Cell Death ELISA apoptosis assay, normal dog hepatocytes; format: cell-based; conditions: mammalian expressed TRAIL supernatants; Fas ligand 100 ng/ml (FIG. 21B)
# Description: 4. Cell Death Detection ELISA Plus assay for apoptosis. The assay is based on a quantitative sandwich-enzyme-immunoassay-principle using mouse monoclonal antibodies directed against DNA and histones, respectively. This allows the specific determination of mono- and oligonucleosomes in the cytoplasmatic fraction of cell lysates. Roche kit, Cat. # 1 774 425, was used for this assay. 0.1 ml of U937 or any other types of cells (2×104 ) and 0.1 ml of tissue culture supernatant or other solutions containing apoptosis inducing agents (e.g. TRAIL) were used for this assay in 48-well plate. After 24 or 48 hrs of incubation at 3 7° C., the cells were spun at 2,000 rpm for 10 minutes. Cell pellet was then resuspended in 200 ul lysis buffer and incubated for 30 minutes at room temperature. The cell lysate was then centrifuged at 2,000 rpm for 10 minutes and diluted at 1:10 with incubation buffer. 20 ul of diluted lysate was added to coated plate (MTP from kit) and 80 ul of the immunoreagent was added to each well. MTP was then covered with adhesive cover foil and incubated under gentle shaking for 2 hours at room temperature. The solution was then removed thoroughly by tapping and subsequently rinsed 3 times with 250 ul incubation buffer. 100 ul ABTS solution was added and incubated on a plate shaker at 250 rpm for 15 minutes. Readings at 405 nm and 490 nm (background) were done on ELISA reader.
# 3. […]
# [3] = test system: hepatocyte; conditions: literature (Lawrence et al. 2001); cited from earlier work
# [4] = test system: various tumor cell lines; conditions: literature (Walczak 1999; Wiley 1995; Pitti 1996); cited from earlier work
# [5] = test system: nontransformed, normal cells; conditions: literature (Walczak 1999; Wiley 1995; Pitti 1996); cited from earlier work
# [6] = test system: human tumors; conditions: mice and nonhuman primates; literature (Walczak 1999; Ashkenazi 1999); cited from earlier work
# [7] = test system: isolated human heptocytes; conditions: literature (Jo et al. 2000); cited from earlier work
# [8] = test system: non-human hepatocytes; conditions: literature (Jo et al. 2000); cited from earlier work
substance,measurement,setting,value
"Fas ligand: Fas ligand (100 ng/ml, Upstate Biotechnology), control; well known agent which causes liver toxicity in vivo [reference compound]","induction of apoptosis of U937 cells, in words",[1],sensitive
same,"apoptosis of normal dog hepatocytes, in words",[2],very sensitive
"His-tagged TRAIL: His-tagged recombinant TRAIL version, Lawrence et al. 2001",hepatocyte toxicity (apoptosis) of recombinant TRAIL versions,[3],induced substantial apoptosis
TRAIL protein: TNF-related apoptosis-inducing ligand as reported in the literature,apoptosis in various tumor cell lines,[4],induce apoptosis
same,"apoptosis in nontransformed, normal cells",[5],"not in nontransformed, normal cells"
same,apoptosis in human tumors after administration of TRAIL,[6],can induce apoptosis in human tumors
same,cytotoxicity in normal organs or tissues,[6],no cytotoxicity
"native form of soluble TRAIL protein: native form of soluble TRAIL protein, Lawrence et al. 2001",hepatocyte toxicity (apoptosis) of recombinant TRAIL versions,[3],no effect
"polyhistidine-tagged recombinant human TRAIL (residues 114-281): polyhistidine-tagged recombinant human TRAIL (residues 114-281), Jo et al. 2000",apoptosis in vitro in isolated human hepatocytes,[7],induce apoptosis
same,apoptosis in vitro in non-human hepatocytes,[8],not in non-human hepatocytes
